This note sets out measurements from the RNAGym collection of RNA variant scans (doi:10.1073/pnas.2313332121).

B1: TPR t1 (parent)
chain: GACCAAUCUGCCCUCAGAGCUCGAGAACAUCUUCGGAUGCAGAGGAGGCAGGCUUCGGUGGCGCGAUAGCGCCAACGUCCUCAACCUCCAAUGCAUCCCACCACAUGAUGAUGCCUGAAGAGCCUUGGUUUUUUG

The data set covers variants of B1. As to the kind of experiment: polymerase ribozyme fitness, log enrichment relative to wild type (log ratio); higher = more active; in vitro selection for triplet polymerase activity. The method in brief:
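Libraries of mutants in each subunit of a heterodimeric triplet polymerase ribozyme were generated by PCR and transcribed. In triplicate, each went through one in vitro selection round: annealing with biotinylated primer, partner subunit and triplets; frozen incubation at −7 °C; gel excision of extended constructs; streptavidin-bead capture; RT-PCR. Fitness, taken from Illumina sequencing of input and output libraries, is the logarithm of a genotype's enrichment over wild-type enrichment, averaged across replicates with inverse-variance weights. The logarithm is base 2, and genotypes needed ≥10 input reads and ≥1 read per output to be kept.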
In the case of GACCAAUCUGCCCUCAGAGCUCGAGAACAUCUUCGGAUGCAGAGGAGGCAGGCUUCGGUGGCGCGAUAGCGCCAACGUCCUCAACCUCCAAUGCGUCCCACCACAUGAUGCUACCUGACCAGCCUUGGUUUUUUG, the “polymerase ribozyme fitness (log ratio)” value is -3.77.

With GACCAAUCUGCCCUCAGAGCUCGAGAACAUCUUCGGAUGCAGAGGAGGCAGGCUUCGGUGGCGCGAUAGCGCCAACGUCCUCAACCUCCAAUGUAUCCCACCACAUGAUGAUGCCUCAAGAGCCUUGGUAUUUUG, the “polymerase ribozyme fitness (log ratio)” value was -6.35.

Take GACCAAUCUGCCCUCAGAGCUCGAGAACAUCUUCGGAUGCAGAGGAGGCAGGCUUCGGUGGCGCGAUAGCGCCAACGUCCUCAACCUCCAAUGGAUCCCACAACAUGAUGAUGCCUGAAGAGCCUUGGUUUUUUG: the “polymerase ribozyme fitness (log ratio)” value is -3.54.

On to GACCAAUCUGCCCUCAGAGCUCGAGAACAUCUUCGGAUGCAGAGGAGGCAGGCUUCGGUGGCGCGAUAGCGCCAACGUCCUCAACCUCCAAUGUAUCCCACCACAUGUUGAUGUCUGAAGAGCCUUGGUUGUUUG, for which the “polymerase ribozyme fitness (log ratio)” value is -7.59.

With GACCAAUCUGCCCUCAGAGCUCGAGAACAUCUUCGGAUGCAGAGGAGGCAGGCUUCGGUGGCGCGAUAGCGCCAACGUCCUCAACCUCCAAUGCGUCCCACCACAUGAUGACGCCUGAAGAGCUUUGGUUUUUUG, the “polymerase ribozyme fitness (log ratio)” value was determined as 1.01.

On to GACCAAUCUGCCCUCAGAGCUCGAGAACAUCUUCGGAUGCAGAGGAGGCAGGCUUCGGUGGCGCGAUAGCGCCAACGUCCUCAACCUCCAAUGUAUCCCACCAUAUGAUGAUGCCUGAAGAGCCUUGGUUUUUUG, for which the “polymerase ribozyme fitness (log ratio)” value was -0.577.

With GACCAAUCUGCCCUCAGAGCUCGAGAACAUCUUCGGAUGCAGAGGAGGCAGGCUUCGGUGGCGCGAUAGCGCCAACGUCCUCAACCUCCAAUGCCUCCCACCACAUGAUGAUCCCUGAAGAGCGUUGGUUUUUUG, the “polymerase ribozyme fitness (log ratio)” value is -1.76.

On to GACCAAUCUGCCCUCAGAGCUCGAGAACAUCUUCGGAUGCAGAGGAGGCAGGCUUCGGUGGCGCGAUAGCGCCAACGUCCUCAACCUCCAAUUCAUCCCACCACAUGAUGAUGCCUGAAGAGCCUUGGUUUUAUG, for which the “polymerase ribozyme fitness (log ratio)” value is -0.793.

With GACCAAUCUGCCCUCAGAGCUCGAGAACAUCUUCGGAUGCAGAGGAGGCAGGCUUCGGUGGCGCGAUAGCGCCAACGUCCUCAACCUCCAAUGCGUCCCACCACAUGAUGAUGCCAGAAGAGCUUUGGUUUUUUG, the “polymerase ribozyme fitness (log ratio)” value is -0.576.

Take GACCAAUCUGCCCUCAGAGCUCGAGAACAUCUUCGGAUGCAGAGGAGGCAGGCUUCGGUGGCGCGAUAGCGCCAACGUCCUCAACCUCCAAUGCCUUCCACCACAUGAUGAUGCCUGAAGAGCCUUGGUUUUUUG: the “polymerase ribozyme fitness (log ratio)” value was -2.11.

In the case of GACCAAUCUGCCCUCAGAGCUCGAGAACAUCUUCGGAUGCAGAGGAGGCAGGCUUCGGUGGCGCGAUAGCGCCAACGUCCUCAACCUCCAAUGUAUCCCACCACAUGAUGAUUCCUGAAGAGCCUUGGUUUUUUG, the “polymerase ribozyme fitness (log ratio)” value was -2.09.

In the case of GACCAAUCUGCCCUCAGAGCUCGAGAACAUCUUCGGAUGCAGAGGAGGCAGGCUUCGGUGGCGCGAUAGCGCCAACGUCCUCAACCUCCAAUGAAUCACACCACAUGAUGAUGCCUGAAGAGCCUUGGUUUUUUG, the “polymerase ribozyme fitness (log ratio)” value is -6.59.

As to GACCAAUCUGCCCUCAGAGCUCGAGAACAUCUUCGGAUGCAGAGGAGGCAGGCUUCGGUGGCGCGAUAGCGCCAACGUCCUCAACCUCCAAUUCAUCCCACCACAUGAUGAGGCCUGAAGAGCCUUGGUUUUUUG, the “polymerase ribozyme fitness (log ratio)” value was -1.63.

For the variant GACCAAUCUGCCCUCAGAGCUCGAGAACAUCUUCGGAUGCAGAGGAGGCAGGCUUCGGUGGCGCGAUAGCGCCAACGUCCUCAACCUCCAAUGCGUCCCACCACAUGACGAUGCCUGAAGAGCCUUGGUUUUUUG, the “polymerase ribozyme fitness (log ratio)” value is -5.61.

As to GACCAAUCUGCCCUCAGAGCUCGAGAACAUCUUCGGAUGCAGAGGAGGCAGGCUUCGGUGGCGCGAUAGCGCCAACGUCCUCAACCUCCAAUGCGUCCCACCACAUGAUGAUGGCUGAAGAGCCUUGGUUUUUUG, the “polymerase ribozyme fitness (log ratio)” value is -3.45.

GACCAAUCUGCCCUCAGAGCUCGAGAACAUCUUCGGAUGCAGAGGAGGCAGGCUUCGGUGGCGCGAUAGCGCCAACGUCCUCAACCUCCAAUGGAUCCCACCACAUGAUGAUGCCUGAAGAGCCUUGGUUGGUUG: the “polymerase ribozyme fitness (log ratio)” value is -1.88.

As for GACCAAUCUGCCCUCAGAGCUCGAGAACAUCUUCGGAUGCAGAGGAGGCAGGCUUCGGUGGCGCGAUAGCGCCAACGUCCUCAACCUCCAAUGGAUCCCACCACAAGAUGAUGCCUGAAGAGCCUUGGUUUUUUG, the “polymerase ribozyme fitness (log ratio)” value is -1.14.

With GACCAAUCUGCCCUCAGAGCUCGAGAACAUCUUCGGAUGCAGAGGAGGCAGGCUUCGGUGGCGCGAUAGCGCCAACGUCCUCAACCUCCAAUGAAUCCCACCACAUGAUGAUGACUGAAGAACCUUGGUUUUUUG, the “polymerase ribozyme fitness (log ratio)” value was -3.

Take GACCAAUCUGCCCUCAGAGCUCGAGAACAUCUUCGGAUGCAGAGGAGGCAGGCUUCGGUGGCGCGAUAGCGCCAACGUCCUCAACCUCCAAUUCAUCCCACCACAUGAUGAUGCCUGAAGAGCCUUGGUUUCUUG: the “polymerase ribozyme fitness (log ratio)” value is -1.31.

For GACCAAUCUGCCCUCAGAGCUCGAGAACAUCUUCGGAUGCAGAGGAGGCAGGCUUCGGUGGCGCGAUAGCGCCAACGUCCUCAACCUCCAAUGUCUCCCACCACAUGAUGAUGCCUGAAGAGCCUUGGUUUUUUG, the “polymerase ribozyme fitness (log ratio)” value was -1.19.

Regarding GACCAAUCUGCCCUCAGAGCUCGAGAACAUCUUCGGAUGCAGAGGAGGCAGGCUUCGGUGGCGCGAUAGCGCCAACGUCCUCAACCUCCAAUGUGUCCCACCACAUGAUGAUGCCUGAAGAGCCUUGGUUUUUUG, the “polymerase ribozyme fitness (log ratio)” value was -0.3.
